Measured values from publication PMC9128377.
Read-outs that look alike come from different tables or passages of the source.

Key:
Assay in all cases: fluorescence anisotropy
U2AF2 12L (RRM1-RRM2) [1] = biological target: T1, U2AF2 12L (RRM1-RRM2) (UniProt P26368 141-342)
U2AF2 12L G297D [2] = biological target: T2, U2AF2 12L G297D (UniProt P26368 141-342, G297D)
U2AF2 12L R227N = U2AF2 12L R227N (UniProt P26368 141-342, R227N)
U2AF2 12L K225N = U2AF2 12L K225N (UniProt P26368 141-342, K225N)
U2AF2 12L (RRM1-RRM2) [3] = biological target: T1, U2AF2 12L (RRM1-RRM2); remark: listed apart in the source
U2AF2 12L (RRM1-RRM2) [4] = biological target: T1, U2AF2 12L (RRM1-RRM2); remark: listed apart in the source
U2AF2 12L G297D [5] = biological target: T2, U2AF2 12L G297D; remark: listed apart in the source

T1 sequence (P26368 141-342): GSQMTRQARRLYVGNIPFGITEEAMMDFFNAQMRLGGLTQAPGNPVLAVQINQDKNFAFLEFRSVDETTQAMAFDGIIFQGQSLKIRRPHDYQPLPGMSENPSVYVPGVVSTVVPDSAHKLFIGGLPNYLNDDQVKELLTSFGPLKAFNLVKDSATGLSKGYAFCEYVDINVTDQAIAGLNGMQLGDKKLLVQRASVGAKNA
T2 sequence (P26368 141-342 G297D): as the sequence (P26368 141-342) above, with G157D counted along it
Chain of U2AF2 12L R227N (P26368 141-342 R227N): as the sequence (P26368 141-342) above, with R87N counted along it
Chain of U2AF2 12L K225N (P26368 141-342 K225N): as the sequence (P26368 141-342) above, with K85N counted along it

Binder	binding signal (U2AF2 12L (RRM1-RRM2) [1]) [fold Kd increase vs N5]	binding signal (U2AF2 12L G297D [2]) [fold penalty]	binding signal (U2AF2 12L R227N) [fold penalty]	binding signal (U2AF2 12L K225N) [fold penalty]	further results
UUUUUGUUU (ssRNA) [U9 G6]	~3	–	–	–	–
UUUGUUUUU (ssRNA) [U9 G4]	~3	–	–	–	–
UUUUGUUUU (ssRNA) [U9 G5]	–	~2	> 5	> 5	binding signal (U2AF2 12L (RRM1-RRM2) [3]): < 2 fold Kd increase vs N5
UUUUCUUUU (ssRNA) [U9 C5]	–	–	–	–	binding result (U2AF2 12L (RRM1-RRM2) [4]): binds; binding signal (U2AF2 12L G297D [5]): ~2 fold penalty
UUUUAUUUU (ssRNA) [U9 A5]	–	~2	> 5	> 5	–
